How the values were obtained:
BAF250a ARID WT = BAF250a ARID WT (UniProt O14497 968-1143); assay: ITC; 25 C; dH 1.51 kcal/mol; n 1.03; ITC: 50 mM NaH2PO4 pH 6, 0.025 mM EDTA, 25 C; 20 uM DNA in cell titrated with 200 uM protein; conditions: protein: recombinant; tags: N-terminal 6xHis (pET28a); blunt; self-complementary palindrome, 2 copies; snap cooled on ice after heating
BAF250a ARID V1067G = BAF250a ARID V1067G (UniProt O14497 968-1143, V1067G); assay: ITC; 25 C; dH -0.69 kcal/mol; n 1.04; ITC: 50 mM NaH2PO4 pH 6, 0.025 mM EDTA, 25 C; 20 uM DNA in cell titrated with 200 uM protein; conditions: protein: recombinant; tags: N-terminal 6xHis (pET28a); blunt; self-complementary palindrome, 2 copies; snap cooled on ice after heating
Sequence of BAF250a ARID V1067G (O14497 968-1143 V1067G): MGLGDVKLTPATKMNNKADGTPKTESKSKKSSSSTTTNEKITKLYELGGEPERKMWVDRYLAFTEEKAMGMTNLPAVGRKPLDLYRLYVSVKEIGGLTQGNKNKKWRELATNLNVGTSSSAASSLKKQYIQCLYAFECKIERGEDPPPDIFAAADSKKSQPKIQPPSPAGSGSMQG

Sequence of BAF250a ARID WT (O14497 968-1143): as the sequence (O14497 968-1143 V1067G) above, with G100V counted along it

B1: DD12 dsDNA (Dickerson dodecamer) (dsDNA)
DNA 1: CGCGAATTCGCG
DNA 2: CGCGAATTCGCG
With B1 the Kd (BAF250a ARID WT) was 71.9 ± 37.7 nM and the Kd (BAF250a ARID V1067G) was 694 ± 331 nM.

Reference: article PMC6181354, “Domain architecture of BAF250a reveals the ARID and ARM-repeat domains with implication in function and assembly of the BAF remodeling complex”
